From patent US11312781B2, “Antigen binding molecules that bind LIGHT” (Capella Bioscience Ltd., priority 2018, dated 2022)
Positions count from the first letter of the chain named. One block for each molecule: values may come before it.

Tests used:
[1] = biological target: T1, membrane LIGHT stably expressed on EL4 cells (Homo sapiens, UniProt O43557); experiment: Binding ratio of mAbs bound to membrane LIGHT by flow cytometry (EL4 cells); conditions: FIG. 7
T1 construct: expressed in transfected cells; host or cells: EL4 mouse lymphoma cells, stably transduced (Cheung et al. J. Immunol. 2009)
T1 sequence (O43557 whole entry): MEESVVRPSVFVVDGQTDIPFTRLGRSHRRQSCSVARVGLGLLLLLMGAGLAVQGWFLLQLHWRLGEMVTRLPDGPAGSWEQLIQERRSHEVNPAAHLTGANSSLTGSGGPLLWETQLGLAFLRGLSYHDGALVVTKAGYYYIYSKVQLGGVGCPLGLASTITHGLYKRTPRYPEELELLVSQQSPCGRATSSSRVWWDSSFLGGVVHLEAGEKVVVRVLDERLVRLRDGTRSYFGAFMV
Method: Stably transduced LIGHT expressing EL4 cells (mouse lymphoma cell line; EL4-LIGHT; Cheung et al. J. Immunol. 2009; 183:7286-7296) were used for the flow cytometry-based binding analysis. EL4-LIGHT cells (0.25×10^6 per well) that had been washed in were incubated with anti-LIGHT IgG4 clones (0.002-100 nM) for 30 min at 4° C. The cells were washed and anti-human IgG-APC conjugate (diluted 1:500, Biolegend cat. No. 409306) was used for detecting anti-LIGHT IgG bound on EL4-LIGHT cells.
FIG. 7 depicts the flow cytometry analysis of the anti-membrane LIGHT mAbs (3B04 and 3D12) binding to LIGHT stably expressed on EL4 cells. The maximum signal of the IgG4 mAbs 3B04 and 3D12 binding to membrane LIGHT is approximately 40000 MFI. In contrast anti-LIGHT mAbs F19 and F23 (IgG4 mAbs from EP2292663) gave a maximal signal of approximately 120000 MFI. The ratio of binding of mAb F19 and mAb F23 is approximately 3 times that of the anti-membrane LIGHT mAbs 3B04 and 3D12. […] Other mAbs of this invention; 2E08, 3A07, 3C10, 3E09 and 2B11 also bind LIGHT in a 1:1 ratio when compared to mAbs F19 and F23 by flow cytometry.

[2] = biological target: T2, DcR3 binding to membrane LIGHT (EL4-LIGHT cells) (Homo sapiens, UniProt O43557); experiment: Competition binding of anti-membrane LIGHT antibodies with DcR3-His on EL4-LIGHT cells; conditions: mAb at up to 100 nM
T2 construct: expressed in transfected cells; host or cells: EL4 mouse lymphoma cells, stably transduced
T2 sequence (O43557 whole entry): as above
Method: DcR3 (TNFRSF6B) is a decoy receptor that competes with receptors for ligand binding. DcR3 can bind and neutralise LIGHT with high affinity and TL1A and FasL with lower affinity (Zhan C et al. Structure. 2011, 19:162-71 “Decoy strategies: the structure of TL1A:DcR3 complex”). Stably transduced LIGHT-expressing EL4 cells (mouse lymphoma cell line; EL4-LIGHT) were used for the flow cytometry-based competition-binding analysis.
EL4-LIGHT cells (0.25×10^6) were preincubated with anti-membrane LIGHT mAbs (0-300 nM) for 15 min at 4° C. followed by incubation with DcR3-His tagged (1 nM, Creative BioMart; ref:TNFRSF6B-552H, lot:962512) for 30 min at 4° C. The samples were then incubated with mouse anti-histag antibody (diluted 1:500, Biolegend, cat. no. 652502) for 30 minutes at 4° C., followed by incubation with anti-mouse APC (dil 1:500, BDBiosciences, cat. no. 550826) for 30 minutes at 4° C. The tubes were washed three times after each of the detection antibody stages and flow cytometry analysis was performed. Specific mean fluorescence intensity (MFI) obtained from the binding of DcR3-His to LIGHT on EL4 cells were used to determine the levels of competition binding.

B1: 3B04: parental mouse anti-membrane LIGHT antibody, VL SEQ ID NO 1, VH SEQ ID NO 5; tested as chimeric human IgG4 mAb (antibody, listed as Homo sapiens, V domains shown)
VH: QVQLQQPGAELVRPGASVTLSCKASGYTFTDYEMHWVKQTPVHGLEWIGEIDPETGDTAYSQKFKGKATLTADKSSSTAYMEFRSLTSEDSAVYYCSRETDYFFDYWGQGTTLTVSS
VL: DIQMTQTPASLSASVGETVTITCGASENIYGALNWYQRKQGKSPQLLIYGATNLADGMSSRFSGSGSGRQYSLKISSLHPDDFATYYCQNVLTTPWTFGGGTKLEIKR
Maximum signal of binding to membrane LIGHT [1]: approximately 40000 MFI
Inhibition of DcR3 binding to membrane LIGHT [2]: only partially inhibit

Maximum signal of binding to membrane LIGHT [1]: approximately 40000 MFI
Inhibition of DcR3 binding to membrane LIGHT [2]: only partially inhibit
B2: 3D12: parental mouse anti-membrane LIGHT antibody, VL SEQ ID NO 41, VH SEQ ID NO 45; tested as chimeric human IgG4 mAb (antibody, listed as Homo sapiens, V domains shown)
VH: B1 VH with G26D, Y32S, M34I, D57G, S61N, F83L
VL: B1 VL with T7S, F83V, T93S
